{"source": "patent US20260234255A1", "about": "(Genmab, published 2026)", "binders": {"B1": {"name": "bsG1-huCD3-H101G-FEALxCD30-MDX060-FEAR (bispecific antibody, human IgG1, kappa, lambda)", "heavy 1": "not shown", "light 1": "not shown", "heavy 2": "QVQLQQWGAGLLKPSETLSLTCAVYGGSFSAYYWSWIRQPPGKGLEWIGDINHGGGTNYNPSLKSRVTISVDTSKNQFSLKLNSVTAADTAVYYCASLTAYWGQGSLVTVSSASTKGPSVFPLAPSSKSTSGGTAALGCLVKDYFPEPVTVSWNSGALTSGVHTFPAVLQSSGLYSLSSVVTVPSSSLGTQTYICNVNHKPSNTKVDKRVEPKSCDKTHTCPPCPAPEFEGGPSVFLFPPKPKDTLMISRTPEVTCVVVAVSHEDPEVKFNWYVDGVEVHNAKTKPREEQYNSTYRVVSVLTVLHQDWLNGKEYKCKVSNKALPAPIEKTISKAKGQPREPQVYTLPPSREEMTKNQVSLTCLVKGFYPSDIAVEWESNGQPENNYKTTPPVLDSDGSFFLYSRLTVDKSRWQQGNVFSCSVMHEALHNHYTQKSLSLSPG", "light 2": "DIQMTQSPTSLSASVGDRVTITCRASQGISSWLTWYQQKPEKAPKSLIYAASSLQSGVPSRFSGSGSGTDFTLTISSLQPEDFATYYCQQYDSYPITFGQGTRLEIKRTVAAPSVFIFPPSDEQLKSGTASVVCLLNNFYPREAKVQWKVDNALQSGNSQESVTEQDSKDSTYSLSSTLTLSKADYEKHKVYACEVTHQGLSSPVTKSFNRGEC", "notes": "Variant of m7 whose CD3 arm carries H101G"}, "B2": {"name": "IgG1-CD30-MDX060-FEAR (antibody)", "heavy": "B1 heavy 2", "light": "B1 light 2", "notes": "Monospecific, bivalent parental antibody; also called IgG1-MDX060-FEAR"}, "B3": {"name": "bsG1-b12-FEALxCD30-MDX060-FERR (bispecific antibody, human IgG1, kappa)", "heavy 1": "QVQLVQSGAEVKKPGASVKVSCQASGYRFSNFVIHWVRQAPGQRFEWMGWINPYNGNKEFSAKFQDRVTFTADTSANTAYMELRSLRSADTAVYYCARVGPYSWDDSPQDNYYMDVWGKGTTVIVSSASTKGPSVFPLAPSSKSTSGGTAALGCLVKDYFPEPVTVSWNSGALTSGVHTFPAVLQSSGLYSLSSVVTVPSSSLGTQTYICNVNHKPSNTKVDKRVEPKSCDKTHTCPPCPAPEFEGGPSVFLFPPKPKDTLMISRTPEVTCVVVAVSHEDPEVKFNWYVDGVEVHNAKTKPREEQYNSTYRVVSVLTVLHQDWLNGKEYKCKVSNKALPAPIEKTISKAKGQPREPQVYTLPPSREEMTKNQVSLTCLVKGFYPSDIAVEWESNGQPENNYKTTPPVLDSDGSFLLYSKLTVDKSRWQQGNVFSCSVMHEALHNHYTQKSLSLSPG", "light 1": "EIVLTQSPGTLSLSPGERATFSCRSSHSIRSRRVAWYQHKPGQAPRLVIHGVSNRASGISDRFSGSGSGTDFTLTITRVEPEDFALYYCQVYGASSYTFGQGTKLERKRTVAAPSVFIFPPSDEQLKSGTASVVCLLNNFYPREAKVQWKVDNALQSGNSQESVTEQDSKDSTYSLSSTLTLSKADYEKHKVYACEVTHQGLSSPVTKSFNRGEC", "heavy 2": "B1 heavy 2 with G231R, A260D", "light 2": "B1 light 2", "notes": "Monovalent CD30 control antibody"}}, "key": {"human CD30 [1]": {"target": "T1, human CD30 (human, UniProt P28908 19-595)", "T1 construct": "The same molecule is used for CD30 on HL/ALCL/NHL cell lines; also called huCD30; TNFRSF8", "T1 sequence": "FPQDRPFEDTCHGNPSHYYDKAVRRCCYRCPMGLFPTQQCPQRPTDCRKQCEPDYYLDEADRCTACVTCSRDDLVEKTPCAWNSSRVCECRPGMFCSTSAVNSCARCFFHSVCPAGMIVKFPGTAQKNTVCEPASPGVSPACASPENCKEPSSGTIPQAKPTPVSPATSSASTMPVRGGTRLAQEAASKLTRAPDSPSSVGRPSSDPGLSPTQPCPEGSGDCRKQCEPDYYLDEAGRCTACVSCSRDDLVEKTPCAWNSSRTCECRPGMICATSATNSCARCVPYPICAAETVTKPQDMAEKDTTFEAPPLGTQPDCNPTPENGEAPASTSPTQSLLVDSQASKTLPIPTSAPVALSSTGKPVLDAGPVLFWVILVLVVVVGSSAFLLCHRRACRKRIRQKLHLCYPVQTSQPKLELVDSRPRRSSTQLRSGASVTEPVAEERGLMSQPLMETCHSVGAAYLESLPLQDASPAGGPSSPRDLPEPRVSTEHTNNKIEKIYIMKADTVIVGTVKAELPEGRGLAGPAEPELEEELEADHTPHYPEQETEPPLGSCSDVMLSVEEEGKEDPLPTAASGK", "assay": "flow cytometry, Expi293F cells transfected with human CD30", "method": "Data are presented as mean fluorescence intensity (MFI) values as determined by flow cytometry of two technical replicates. […] Data are presented as mean fluorescence intensity (MFI) values as determined by flow cytometry of one representative experiment.\nBinding of bispecific CD3×CD30 antibodies and monospecific, bivalent CD30 antibodies to the plasma membrane of Expi293 cells transiently transfected with human CD30 or cynomolgus monkey CD30 was analyzed by flow cytometry."}, "[2]": {"target": "T2, cynomolgus monkey (Macaca fascicularis) CD30 (cynomolgus monkey, UniProt P28908 19-595 (human entry))", "T2 construct": "also called mfCD30", "T2 chain": "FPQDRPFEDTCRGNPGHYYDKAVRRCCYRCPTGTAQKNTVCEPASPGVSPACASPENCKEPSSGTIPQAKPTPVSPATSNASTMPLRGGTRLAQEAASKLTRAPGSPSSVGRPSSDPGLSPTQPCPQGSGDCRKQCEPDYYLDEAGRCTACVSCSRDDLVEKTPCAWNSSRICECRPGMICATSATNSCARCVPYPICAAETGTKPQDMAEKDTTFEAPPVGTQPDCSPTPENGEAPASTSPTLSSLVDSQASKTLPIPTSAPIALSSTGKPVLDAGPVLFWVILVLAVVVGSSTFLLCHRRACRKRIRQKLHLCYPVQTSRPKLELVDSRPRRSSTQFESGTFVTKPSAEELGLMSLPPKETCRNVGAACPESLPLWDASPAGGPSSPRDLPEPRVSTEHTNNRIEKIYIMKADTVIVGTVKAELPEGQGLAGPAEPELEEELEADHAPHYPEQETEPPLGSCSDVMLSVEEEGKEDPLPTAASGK", "assay": "flow cytometry, Expi293F cells transfected with cynomolgus monkey CD30 (mfCD30)", "experimental": "Cells (3×10⁴ cells/well) were incubated in polystyrene 96-well round-bottom plates (Greiner bio-one, cat. no. 650180) with serial dilutions of antibodies (ranging from 0.005 to 10 μg/mL in 3-fold dilution steps) in 100 μL staining buffer at 4° C. for 30 min. Experiments were performed in technical duplicate. After washing twice in staining buffer, cells were incubated in 50 μL secondary antibody at 4° C. for 30 min. As a secondary antibody, R-PE-conjugated goat-anti-human IgG (Jackson ImmunoResearch, UK; cat. no. 109⁻¹¹⁶-098) diluted 1:400 in staining buffer was used. Cells were washed twice in staining buffer, resuspended in 30 μL staining buffer containing 0.4% EDTA and analyzed on an iQue Screener (Intellicyt Corporation, USA). Binding curves were analyzed using non-linear regression (sigmoidal dose-response with variable slope) using GraphPad Prism V9.0.0 software (GraphPad Software, San Diego, CA, USA)."}, "cynomolgus monkey CD3": {"target": "T3, cynomolgus monkey CD3 (cynomolgus monkey, UniProt Q95LI5 22-198)", "T3 construct": "CD3 endogenously expressed on T cells within cynomolgus monkey PBMCs", "T3 sequence (Q95LI5 22-198)": "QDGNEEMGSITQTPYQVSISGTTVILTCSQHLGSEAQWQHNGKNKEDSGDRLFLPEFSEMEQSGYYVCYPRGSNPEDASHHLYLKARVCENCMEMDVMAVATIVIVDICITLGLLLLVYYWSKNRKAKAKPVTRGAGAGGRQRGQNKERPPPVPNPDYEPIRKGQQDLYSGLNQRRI", "assay": "flow cytometry, cynomolgus monkey T cells (PBMCs)", "experimental": "(§1) Cynomolgus monkey PBMCs (Tebu-Bio, The Netherlands; cat. no. PBMCMFA-10) or purified human T cells were plated in polystyrene 96-well round-bottom plates. T cells were derived from human donor buffy coats (Sanquin, Amsterdam, The Netherlands) and isolated using the RosetteSep human T cell enrichment cocktail (Stemcell Technologies, France, cat. no. 15061) according to manufacturer's instructions. […] After washing twice in staining buffer, cells were incubated in 50 μL secondary R-PE-conjugated goat-anti-human IgG antibody at 4° C. for 30 min (1:400 dilution). After washing twice in staining buffer, T cells were stained for T-cell markers CD3 (1:100; Miltenyi biotec, clone 10D12, conjugated to APC), CD4 (1:50; eBioscience, clone OKT4, conjugated to APC-Cy7), CD8 (1:100; Biolegend, clone RPA-T8, conjugated to AF700) and T-cell activation markers CD69 (1:50; BD Biosciences, clone AB2439, conjugated to FITC), CD25 (1:50; eBioscience, clone BC96, conjugated to PE-Cy7) and CD279/PD1 (1:50; BD Biosciences, clone AEH12.2H7, conjugated to BV605). Single stained samples with Ultracomp beads (5 μL; Invitrogen, cat. no. 01-2222-42) were used for compensation adjustments of the flow cytometer. After 30 min of incubation at 4° C., cells were washed twice with staining buffer, resuspended in 100 μL staining buffer and analyzed using a FACS Fortessa (BD Biosciences). Data were processed using FlowJo (BD Biosciences)."}, "human CD30 [3]": {"target": "T1, human CD30", "assay": "flow cytometry, HDLM-2 cells", "in_short": "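CD3×CD30 bispecific antibodies, 3-fold serial dilutions from 0.0046 to 10 μg/mL, incubated with 3×10⁴ SU-DHL-1 (ALCL) or HDLM-2 (HL) cells for 30 min at 4 °C, then secondary antibody 30 min at 4 °C. Live cells gated by FSC/SSC and TO-PRO-3 exclusion; binding curves fitted by four-parameter sigmoidal regression.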"}, "human CD3": {"target": "T4, human CD3 (human, UniProt P07766 23-207)", "T4 construct": "CD3 endogenously expressed on primary human T cells (whole TCR/CD3 complex); also called human CD3 (epsilon)", "T4 sequence (P07766 23-207 limits assumed)": "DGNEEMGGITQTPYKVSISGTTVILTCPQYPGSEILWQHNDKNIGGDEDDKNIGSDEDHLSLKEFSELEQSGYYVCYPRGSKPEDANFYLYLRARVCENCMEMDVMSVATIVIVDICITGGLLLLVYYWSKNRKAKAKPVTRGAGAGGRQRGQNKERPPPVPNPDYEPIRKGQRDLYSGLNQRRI", "assay": "flow cytometry, primary human T cells", "experimental": "as §1, with “Data were processed using FlowJo (BD Biosciences).” left out"}, "human CD30 [4]": {"target": "T1, human CD30", "assay": "flow cytometry, SUP-M2 cells"}, "human CD30 [5]": {"target": "T1, human CD30", "assay": "flow cytometry, SR-786 cells"}, "human CD30 [6]": {"target": "T1, human CD30", "assay": "flow cytometry, NCEB-1 cells"}, "human CD30 [7]": {"target": "T1, human CD30", "assay": "flow cytometry, L-1236 cells"}, "human CD30 [8]": {"target": "T1, human CD30", "assay": "flow cytometry, L-82 cells"}, "human CD30 [9]": {"target": "T1, human CD30", "assay": "flow cytometry, KM-H2 cells"}, "human CD30 [10]": {"target": "T1, human CD30", "assay": "flow cytometry, HH cells", "experimental": "Cells (3×10⁴ cells/well) were incubated in polystyrene 96-well round-bottom plates (Greiner bio-one, cat. no. 650180) with serial dilutions of antibodies (range 0.0046 to 10 μg/mL in 3-fold dilution steps) in 50 μL staining buffer at 4° C. for 30 min. After washing twice in staining buffer, cells were incubated with 50 μL secondary antibody at 4° C. for 30 min. […] Next, cells were washed twice in staining buffer, resuspended in 100 μL staining buffer supplemented with TO-PRO-3 iodide (Thermo Fisher Scientific; cat. no. T3605; 1:8000 dilution) and analyzed on a FACSCelesta flow cytometer (BD Biosciences, USA). Live cells were gated based on FSC/SSC and absence of TOPRO-3 staining. Binding curves were analyzed by non-linear regression of log-transformed data (sigmoidal dose-response with variable slope, four parameters) using GraphPad Prism V7.02 software (GraphPad Software, San Diego, CA, USA)."}, "human CD30 [11]": {"target": "T1, human CD30", "assay": "flow cytometry, DL-40 cells"}, "human CD30 [12]": {"target": "T1, human CD30", "assay": "flow cytometry, JVM-2 cells"}, "human CD30 [13]": {"target": "T1, human CD30", "assay": "flow cytometry, L-540 cells"}}, "note": "Changes are numbered by the printed parent chain. Names may count otherwise."}
{"binder": "B1", "values": [{"measurement": "binding result", "setting": "human CD30 [1]", "result": "binds"}, {"measurement": "binding result", "setting": "[2]", "result": "binds"}]}
{"binder": "B2", "values": [{"measurement": "binding result", "setting": "cynomolgus monkey CD3", "result": "no binding (tested: 10 ug/mL)"}, {"measurement": "EC50 (read off the curve)", "setting": "human CD30 [3]", "result": "~0.2", "unit": "µg/mL"}, {"measurement": "binding result", "setting": "human CD3", "result": "no binding (tested: 10 ug/mL)"}, {"measurement": "binding result", "setting": "[2]", "result": "binds"}]}
{"binder": "B3", "values": [{"measurement": "EC50 (read off the curve)", "setting": "human CD30 [4]", "result": "~0.2", "unit": "µg/mL"}, {"measurement": "EC50 (read off the curve)", "setting": "human CD30 [5]", "result": "~0.3", "unit": "µg/mL"}, {"measurement": "EC50 (read off the curve)", "setting": "human CD30 [6]", "result": "~0.2", "unit": "µg/mL"}, {"measurement": "EC50 (read off the curve)", "setting": "human CD30 [7]", "result": "~0.2", "unit": "µg/mL"}, {"measurement": "EC50 (read off the curve)", "setting": "human CD30 [8]", "result": "~0.2", "unit": "µg/mL"}, {"measurement": "EC50 (read off the curve)", "setting": "human CD30 [9]", "result": "~0.1", "unit": "µg/mL"}, {"measurement": "EC50 (read off the curve)", "setting": "human CD30 [10]", "result": "~0.4", "unit": "µg/mL"}, {"measurement": "EC50 (read off the curve)", "setting": "human CD30 [11]", "result": "~0.3", "unit": "µg/mL"}, {"measurement": "EC50 (read off the curve)", "setting": "human CD30 [12]", "result": "~0.1", "unit": "µg/mL"}, {"measurement": "EC50 (read off the curve)", "setting": "human CD30 [13]", "result": "~0.5", "unit": "µg/mL"}]}
